Results reported in the supplement of paper PMC10567573.

B1: HESX1 (parent)
chain: SKYENYFSASERLSLKRELSWYRG

Variants of: B1
Assay: protein stability index of a GFP-peptide fusion (GPS, HEK-293T) (PSI 1-6); higher = more stable
Conditions: c terminus: a fixed tail appended
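Note: lentivirally expressed fusions sorted by FACS into six bins by GFP to DsRed ratio, PSI derived from sequencing read proportions per bin multiplied by bin number.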

With SKYENYWSASERLSLKRELSWYRG [F7W] as the variant, how does the protein stability index read?
The protein stability index was 1.3.

With SKYENYISASERLSLKRELSWYRG [F7I] as the variant, how does the protein stability index read?
Its protein stability index is 1.98.

Which protein stability index does the source give for SKYENYVSASERLSLKRELSWYRG [F7V] here?
Its protein stability index is 3.05.

Which protein stability index does the source give for SKYENYHSASERLSLKRELSWYRG [F7H] here?
The protein stability index was 2.72.

Which protein stability index does the source give for SKYENYGSASERLSLKRELSWYRG [F7G] here?
The protein stability index was 1.42.

Which protein stability index does the source give for SKYENYMSASERLSLKRELSWYRG [F7M] here?
The protein stability index was 2.12.

With SKYENYESASERLSLKRELSWYRG [F7E] as the variant, how does the protein stability index read?
The protein stability index was 1.96.

Which protein stability index does the source give for SKYENYSSASERLSLKRELSWYRG [F7S] here?
The protein stability index was 2.83.

With SKYENYLSASERLSLKRELSWYRG [F7L] as the variant, how does the protein stability index read?
The protein stability index was 2.64.

Which protein stability index does the source give for SKYENHFSASERLSLKRELSWYRG [Y6H] here?
The protein stability index was 2.25.

With SKYENFFSASERLSLKRELSWYRG [Y6F] as the variant, how does the protein stability index read?
Its protein stability index is 2.88.

For SKYENLFSASERLSLKRELSWYRG [Y6L], which protein stability index is on record?
Its protein stability index is 2.85.

For SKYENRFSASERLSLKRELSWYRG [Y6R], which protein stability index is on record?
The protein stability index was 1.84.

For SKYENCFSASERLSLKRELSWYRG [Y6C], which protein stability index is on record?
The protein stability index was 1.84.

Which protein stability index does the source give for SKYENEFSASERLSLKRELSWYRG [Y6E] here?
Its protein stability index is 2.3.

Which protein stability index does the source give for SKYENMFSASERLSLKRELSWYRG [Y6M] here?
The protein stability index was 2.15.

Which protein stability index does the source give for SKYENKFSASERLSLKRELSWYRG [Y6K] here?
The protein stability index was 2.05.

With SKYENAFSASERLSLKRELSWYRG [Y6A] as the variant, how does the protein stability index read?
The protein stability index was 2.85.

For SKYENQFSASERLSLKRELSWYRG [Y6Q], which protein stability index is on record?
Its protein stability index is 1.96.

With SKYENTFSASERLSLKRELSWYRG [Y6T] as the variant, how does the protein stability index read?
The protein stability index was 2.63.

For SKYENDFSASERLSLKRELSWYRG [Y6D], which protein stability index is on record?
Its protein stability index is 2.91.

Which protein stability index does the source give for SKYENSFSASERLSLKRELSWYRG [Y6S] here?
Its protein stability index is 2.16.

For SKYENVFSASERLSLKRELSWYRG [Y6V], which protein stability index is on record?
The protein stability index was 1.27.

For SKYENNFSASERLSLKRELSWYRG [Y6N], which protein stability index is on record?
The protein stability index was 2.79.

With SKYENGFSASERLSLKRELSWYRG [Y6G] as the variant, how does the protein stability index read?
The protein stability index was 2.56.

Which protein stability index does the source give for KKYENYFSASERLSLKRELSWYRG [S1K] here?
The protein stability index was 1.4.

For LKYENYFSASERLSLKRELSWYRG [S1L], which protein stability index is on record?
The protein stability index was 2.06.

For MKYENYFSASERLSLKRELSWYRG [S1M], which protein stability index is on record?
Its protein stability index is 1.36.

With IKYENYFSASERLSLKRELSWYRG [S1I] as the variant, how does the protein stability index read?
The protein stability index was 1.61.

Which protein stability index does the source give for GKYENYFSASERLSLKRELSWYRG [S1G] here?
Its protein stability index is 1.9.

With YKYENYFSASERLSLKRELSWYRG [S1Y] as the variant, how does the protein stability index read?
Its protein stability index is 2.77.

With CKYENYFSASERLSLKRELSWYRG [S1C] as the variant, how does the protein stability index read?
Its protein stability index is 2.04.

For HKYENYFSASERLSLKRELSWYRG [S1H], which protein stability index is on record?
Its protein stability index is 2.34.

For NKYENYFSASERLSLKRELSWYRG [S1N], which protein stability index is on record?
Its protein stability index is 1.74.

With EKYENYFSASERLSLKRELSWYRG [S1E] as the variant, how does the protein stability index read?
The protein stability index was 1.76.

Which protein stability index does the source give for AKYENYFSASERLSLKRELSWYRG [S1A] here?
The protein stability index was 1.71.

For SKDENYFSASERLSLKRELSWYRG [Y3D], which protein stability index is on record?
The protein stability index was 2.29.

Which protein stability index does the source give for SKKENYFSASERLSLKRELSWYRG [Y3K] here?
The protein stability index was 3.46.

With SKRENYFSASERLSLKRELSWYRG [Y3R] as the variant, how does the protein stability index read?
Its protein stability index is 2.13.

For SKPENYFSASERLSLKRELSWYRG [Y3P], which protein stability index is on record?
Its protein stability index is 1.66.

For SKFENYFSASERLSLKRELSWYRG [Y3F], which protein stability index is on record?
Its protein stability index is 1.48.

Which protein stability index does the source give for SKSENYFSASERLSLKRELSWYRG [Y3S] here?
The protein stability index was 2.97.

Which protein stability index does the source give for SKCENYFSASERLSLKRELSWYRG [Y3C] here?
The protein stability index was 1.79.

With SKIENYFSASERLSLKRELSWYRG [Y3I] as the variant, how does the protein stability index read?
The protein stability index was 2.26.

With SKNENYFSASERLSLKRELSWYRG [Y3N] as the variant, how does the protein stability index read?
Its protein stability index is 1.72.

With SKVENYFSASERLSLKRELSWYRG [Y3V] as the variant, how does the protein stability index read?
The protein stability index was 3.67.

For SKGENYFSASERLSLKRELSWYRG [Y3G], which protein stability index is on record?
Its protein stability index is 2.75.

With SKLENYFSASERLSLKRELSWYRG [Y3L] as the variant, how does the protein stability index read?
Its protein stability index is 1.97.

With SKQENYFSASERLSLKRELSWYRG [Y3Q] as the variant, how does the protein stability index read?
Its protein stability index is 1.61.

For SKMENYFSASERLSLKRELSWYRG [Y3M], which protein stability index is on record?
Its protein stability index is 1.59.

Which protein stability index does the source give for SKYECYFSASERLSLKRELSWYRG [N5C] here?
Its protein stability index is 1.51.

With SKYEKYFSASERLSLKRELSWYRG [N5K] as the variant, how does the protein stability index read?
Its protein stability index is 1.42.

For SKYETYFSASERLSLKRELSWYRG [N5T], which protein stability index is on record?
Its protein stability index is 2.24.

For SKYEAYFSASERLSLKRELSWYRG [N5A], which protein stability index is on record?
Its protein stability index is 2.03.

With SKYEPYFSASERLSLKRELSWYRG [N5P] as the variant, how does the protein stability index read?
Its protein stability index is 1.63.

For SKYEDYFSASERLSLKRELSWYRG [N5D], which protein stability index is on record?
Its protein stability index is 1.71.

Which protein stability index does the source give for SKYEIYFSASERLSLKRELSWYRG [N5I] here?
The protein stability index was 2.23.

Which protein stability index does the source give for SKYEQYFSASERLSLKRELSWYRG [N5Q] here?
The protein stability index was 2.12.

For SKYEHYFSASERLSLKRELSWYRG [N5H], which protein stability index is on record?
Its protein stability index is 1.9.

With SKYEFYFSASERLSLKRELSWYRG [N5F] as the variant, how does the protein stability index read?
The protein stability index was 1.03.

For SKYEYYFSASERLSLKRELSWYRG [N5Y], which protein stability index is on record?
The protein stability index was 2.24.

For SDYENYFSASERLSLKRELSWYRG [K2D], which protein stability index is on record?
The protein stability index was 2.19.

Which protein stability index does the source give for SMYENYFSASERLSLKRELSWYRG [K2M] here?
Its protein stability index is 1.7.

Which protein stability index does the source give for SRYENYFSASERLSLKRELSWYRG [K2R] here?
Its protein stability index is 1.64.

With STYENYFSASERLSLKRELSWYRG [K2T] as the variant, how does the protein stability index read?
Its protein stability index is 2.34.

With SHYENYFSASERLSLKRELSWYRG [K2H] as the variant, how does the protein stability index read?
Its protein stability index is 1.8.

Which protein stability index does the source give for SPYENYFSASERLSLKRELSWYRG [K2P] here?
The protein stability index was 1.96.

For SYYENYFSASERLSLKRELSWYRG [K2Y], which protein stability index is on record?
The protein stability index was 1.81.

With SAYENYFSASERLSLKRELSWYRG [K2A] as the variant, how does the protein stability index read?
The protein stability index was 2.09.

Which protein stability index does the source give for SSYENYFSASERLSLKRELSWYRG [K2S] here?
The protein stability index was 1.82.

Which protein stability index does the source give for SFYENYFSASERLSLKRELSWYRG [K2F] here?
Its protein stability index is 1.57.

With SIYENYFSASERLSLKRELSWYRG [K2I] as the variant, how does the protein stability index read?
The protein stability index was 1.45.

With SLYENYFSASERLSLKRELSWYRG [K2L] as the variant, how does the protein stability index read?
Its protein stability index is 1.25.

For SQYENYFSASERLSLKRELSWYRG [K2Q], which protein stability index is on record?
Its protein stability index is 2.65.

For SCYENYFSASERLSLKRELSWYRG [K2C], which protein stability index is on record?
Its protein stability index is 2.23.

For SGYENYFSASERLSLKRELSWYRG [K2G], which protein stability index is on record?
The protein stability index was 2.31.

With SVYENYFSASERLSLKRELSWYRG [K2V] as the variant, how does the protein stability index read?
Its protein stability index is 1.77.

Which protein stability index does the source give for SEYENYFSASERLSLKRELSWYRG [K2E] here?
Its protein stability index is 2.05.

Which protein stability index does the source give for SKYQNYFSASERLSLKRELSWYRG [E4Q] here?
Its protein stability index is 1.56.

With SKYCNYFSASERLSLKRELSWYRG [E4C] as the variant, how does the protein stability index read?
The protein stability index was 2.24.

With SKYGNYFSASERLSLKRELSWYRG [E4G] as the variant, how does the protein stability index read?
The protein stability index was 2.13.

For SKYYNYFSASERLSLKRELSWYRG [E4Y], which protein stability index is on record?
The protein stability index was 2.33.

With SKYVNYFSASERLSLKRELSWYRG [E4V] as the variant, how does the protein stability index read?
Its protein stability index is 2.1.

With SKYMNYFSASERLSLKRELSWYRG [E4M] as the variant, how does the protein stability index read?
The protein stability index was 2.02.

Which protein stability index does the source give for SKYHNYFSASERLSLKRELSWYRG [E4H] here?
The protein stability index was 1.17.

Which protein stability index does the source give for SKYSNYFSASERLSLKRELSWYRG [E4S] here?
Its protein stability index is 1.27.

With SKYTNYFSASERLSLKRELSWYRG [E4T] as the variant, how does the protein stability index read?
Its protein stability index is 2.98.

Which protein stability index does the source give for SKYINYFSASERLSLKRELSWYRG [E4I] here?
Its protein stability index is 1.26.

For SKYANYFSASERLSLKRELSWYRG [E4A], which protein stability index is on record?
The protein stability index was 1.61.

Which protein stability index does the source give for SKYDNYFSASERLSLKRELSWYRG [E4D] here?
The protein stability index was 2.45.

Which protein stability index does the source give for SKYNNYFSASERLSLKRELSWYRG [E4N] here?
Its protein stability index is 1.71.

Which protein stability index does the source give for SKYRNYFSASERLSLKRELSWYRG [E4R] here?
Its protein stability index is 2.54.

With SKYLNYFSASERLSLKRELSWYRG [E4L] as the variant, how does the protein stability index read?
The protein stability index was 2.23.

With SKYPNYFSASERLSLKRELSWYRG [E4P] as the variant, how does the protein stability index read?
Its protein stability index is 2.06.
